Experimental findings from patent publication US20170210787A1 (Janssen / Centocor, published 2017) are described below.

Assay [1] deals with tau 299-369 (human). Put plainly: peptide ELISA, 1 ug/mL.
Assay [2] has as its target tau 299-369 (human). Kind of assay: ELISA on biotinylated peptide captured on streptavidin plate, IgG titrated [a]. Background: ELISA stands for enzyme-linked immunosorbent assay.
The target in assay [3] is tau 299-369 (human). Kind of assay: peptide ELISA, 1 ug/mL. This is another data set of the same source.
Assay [4] has as its target tau 299-369 (human). Put plainly: ELISA on biotinylated peptide captured on streptavidin plate, IgG titrated [a]. This is another data set of the same source.

Where two headings read alike, the source gives them in different places.

B1: CBTAU-27.1 (antibody, V domains shown)
VH: QVQLVESGPEMRKPGESLKISCKTSGYIFSDYWTAWVRQLPGKGLQWMGIIYSGDSDTRYHPSVQGHVTMSTDSSLTTAYLQWSSLKASDTGIYYCARLDARVDAGWQLDSWGQGTLVTVSS
VL: DIQLTQSPDSLAVSLGERATINCKSSQSVFSRDNNKNYLAWYQHKSGQPPKLLFFWASSRESGVSDRFSGSGSGTDFTLTIDNLQAEDVALYYCQHYFNTPHNFGQGTKLEIK
For orientation: EC50 (read off the curve) means the concentration giving half of the maximal effect. Lower therefore signals higher potency in that assay. On to B1, for which the OD450 with tau 299-369 [1] was 1 to 1.5 od; in the assay with tau 299-369 [3], over 1.5 od. The “EC50 (read off the curve)” value in the assay with tau 299-369 [2] was about 0.1 µg/mL; with tau 299-369 [4] it was about 0.2 µg/mL.
